Reference: patent publication US20150320848A1

Key:
Test in all cases: REVEAL MHC-peptide binding assay; score relative to positive control
HLA-DR1 = target: HLA-DR1
HLA-DR2 = target: HLA-DR2
HLA-DR7 = target: HLA-DR7
HLA-DR4 = target: HLA-DR4
HLA-DR5 = target: HLA-DR5

Measured: binding score (% compared to the positive control)

GNQLFRINEANQLMQ [GALNT7-001]
not listed: HLA-DR5
> 15%: all other assays above

FEGQFSINKVPGNFHVS [ERGIC1-001]
> 15%: HLA-DR4 | HLA-DR5
